The values below come from patent US6784155B1, “Inhibitor and stimulator of stem cell proliferation and uses thereof” (Wellstat Therapeutics Corporation, priority 1996, dated 2004).

Positions of bridges follow the written chain, without caps; N, C: chain ends. No end group written: not given here.

Series [1] concerns CFU-MIX. The experiment in a line: CFU-MIX cycling assay in vitro (Ara C kill). The following applies: Table 19, 100 ng/ml. The format is cell-based, mouse. As for the experimental part:
A similar assay can be performed in vitro, using the cycling status of CFU-MIX instead of CFU-S. The assay is performed as described above for the CFU-S assay except that cytosine arabinoside (Ara C, 30 micrograms/ml) is used as the cycle-specific toxic agent instead of high dose tritiated thymidine (see B. I. Lord in Haemopoiesis—A Practical Approach, N. G. Testa and G. Molineux (Eds.), IRL Press 1993; Pragnell et al. in Culture of Hematopoietic Cells, R. I. Freshney, I. B. Pragnell and M. G. Freshney (Eds.), Wiley Liss 1994) and a mouse strain with high endogenous cycling rates (Balb/c) is used instead of testosterone-treated BDFI mice.
(§1) 24 hours later (Day 1), varying doses of peptide 43-55 or vehicle were injected i.v. Bone marrow was harvested on Day 2 and the […] cycling assay conducted as in Example 14. Specifically, mice were sacrificed and single cell bone marrow suspensions prepared from the femurs. The cells were washed once and the concentration adjusted to 5×10^6 cells/ml in Fischer medium. For each test condition, one milliliter of cells was added to each of two polypropylene tubes. The tubes were incubated at 37° C. for 3 hours without (“Control”) or with (“Experimental”) the appropriate concentration of test substance. At the end of the incubation, 30 μg/ml of cytosine arabinoside (“Ara C” (Sigma)) was added to half of the tubes and the same volume of Fischer's medium was added to the others. The tubes were incubated for a further 1 hour at 37° C., after which they were placed on ice and washed twice with cold Fischer medium.
(§2) The cells were readjusted to 5×10^4-10^6/ml in Fischer's medium and 0.5 ml of cell suspension added to 5 ml of Methocult M3430 methylcellulose medium (Stem Cell Technologies, Vancouver, British Columbia). The mixture was vigorously mixed with a vortex and 1 ml was dispensed into each of five 35 mm dishes. The 35 mm dishes were in turn placed in a covered 150 mm dish with one open 35 mm dish containing sterile water. CFU-MIX colonies were counted with the use of an inverted microscope after 7 days of incubation at 37° C.
Differences in colony number between the tubes treated with medium versus the tubes treated with Ara C represent the percentage of cells in cycle under that condition according to the formula:
a=Number of CFU-MIX from tube incubated with medium alone
b=Number of CFU-MIX from tube incubated with Ara C

Series [2] has as its system CFU-MIX. Briefly: CFU-MIX cycling assay after in vivo injection into testosterone or 5FU treated mice. Further details: species or system mouse. Particulars: Table 23, 5FU-pretreated animals, 0.5 ng i.v. per 20 gram mouse. As for the experimental part:
In order to test the ability of purified porcine hemoglobin chains to act in vivo, BDF1 mice were injected with testosterone propionate as described in Example 1. Twenty four hours later, mice received 500 ng of either pINPROL, porcine hemoglobin alpha chain (purified from peripheral red blood cells as in FIG. 21), porcine beta chain (purified from peripheral red blood cells as in FIG. 21) or the equivalent volume of carrier intravenously. Forty eight hours later the bone marrow from each mouse was harvested and the CFU-MIX assay conducted as described in Example 14.
To assess the stem cell inhibitory activity of peptide 43-55 in vivo, B6D2 F1 mice were pre-treated with testosterone propionate as described in Example 1 or with 5FU. Specifically, testosterone propionate (100 mg/kg body weight) was injected i.p. on Day 0 into mice. Alternatively, mice were injected on Day 0 with 5FU ([…] body weight).
as §1, §2
Differences in colony number between the tubes treated with medium versus the tubes treated with Ara C represent the percentage of cells in cycle under that condition according to the formula: […]

A further series deals with CFU-GEMM. Briefly: CFU-GEMM cycling assay, human umbilical cord blood cells. It is filed as cell-based. Particulars: Table 32, cord blood mononuclear cells. As for the experimental part: In order to investigate the ability of purified INPROL from porcine bone marrow to affect cycling on human progenitors, umbilical cord blood cells were obtained. Either the total mononuclear cell fraction obtained after separation on Ficoll or the CD34^+ fraction obtained after fractionation on anti-CD34 affinity columns (CellPro Inc.) was used. Cells were incubated for 48 hours in vitro in the presence of interleukin 3 (IL-3) and stem cell factor (SCF) (100 ng/ml each) in order to ensure that the early stem cells were in cycle. After this preincubation, cycling assays were conducted as described in Example 14 for the mouse except that CFU-GEMM (instead of CFU-MIX) were counted on Day 18 after plating.
The human cord blood CFU-GEMM cycling assay was conducted as in Example 19. Specifically, mononuclear cells were isolated from human umbilical cord blood cells and adjusted to 24×10^4 cells/ml in IMDM tissue culture medium supplemented with 10% FBS, 100 ng/ml kit ligand and 100 ng/ml human IL-3. The cells were incubated for 48 hours at 37° C.
After incubation, cells were washed and resuspended in serun-free NDM at a concentration of 10^6 cells/ml. One ml of cells was added to each of two polypropylene tubes per condition and the cycling assay conducted as in Example 24 for mouse bone marrow. After the Ara C incubation cells were washed with cold NDM and adjusted to 10,000 to 20,000 cells per 0.5 ml IMDM and mixed with 5 ml Methocult H4433 (Stem Cell Technologies). Alternatively, Methocult H4435 methylcellulose medium (Stem Cell Technologies) was used in which case the cell concentration was adjusted to 2500-5000 cells per 0.5 ml IMDM. The cells were plated as in Example 24 and CFU-GEMM colonies scored on days 14-18.

The nature of series [3]: Distribution of ubiquitin fusion proteins between soluble fraction and precipitate of E. coli lysate (SDS-PAGE). It is filed as physicochemical. The following applies: after centrifugation of the bacterial lysate. As for the experimental part: To obtain protein for assay, 100 ml starter cultures in 250 ml shake flasks were grown from single colonies by overnight incubation (16-20 hours) in 2×YT medium with ampicillin (100 μg/ml), neomycin (10 μg/ml) and 1% glucose. Shaker flask cultures were maintained at 30° C. and 250 rpm in a New Brunswick environmental shaker incubator. The next morning the culture was diluted to liter with medium Cells were induced by IPTG addition to 1 mM (final dilution) at OD600=0.5 and harvested at OD600=0.8 by centrifugation. The harvested cells were resuspended in hypotonic lysis buffer (100 μl of 50 mM Tris, pH 10.0). The bacterial cells were lysed by subjecting the suspension to three cycles of freeze-thaw (dry ice-ethanol bath for freezing and 60° C. for thawing). The suspension was then sonicated for 10 min and centrifuged at 12,000 g for 10 min. The resulting supernatant was designated as “S1”. The cell pellet was resuspended in 50 mM Tris, pH10 and 2×SDS tricine loading buffer (Novex, San Diego, Calif.) (1:1). The mixture was then heated at 95° C. for 15 min and centrifuged at 12,000 g for 10 min. The portion of the precipitate capable of being resolubilized in this manner was called “P1”. The portion of the precipitate derived from the remaining pellet was called “P2”. P2 was resuspended in loading buffer as for P1. Samples from S1, P1 and P2 were analyzed by SDS-PAGE. […]

The test system of a further series is CFU-S. The experiment in a line: CFU-S proliferation assay, 3H-Thymidine suicide method (bone marrow incubated with test fractions). It is filed as cell-based, mouse. The following applies: Table 8, bone marrow from testosterone treated mice, 200 ng/ml. As for the experimental part:
For the detection of stem cells proliferation the number of CFU-S in S-phase of the cell cycle was measured by the ^3H-Thymidine “suicide” method (Becker et al., Blood 26:296-308, 1965).
Immature hematopoietic progenitors-Colony Forming Units in spleen (CFU-S)—can be detected in vivo by forming macroscopic colonies in the spleens of lethally irradiated mice, 8-12 days after the intravenous injection of hematopoietic cells (Till & McCulloch, 1961).
For the standard CFU-S proliferation assay the method of ^3H-Thymidine “suicide” is usually applied (Becker et al., 1965). The method is based on incorporation of radiolabelled Thymidine, (^3H-Thymidine) a precursor of DNA into cells during DNA synthesis. The CFU-S which are in S-phase of the cycle at the time of testing, are killed by the high radioactivity and therefore not able to form colonies in spleen.
The inhibitor testing can not be done with the bone marrow stem cell population from unstimulated animals, as far as the inhibitor only effects cycling CFU-S, which are as low as 7-10% of the total CFU-S population in the bone marrow of normal mice.
To stimulate CFU-S proliferation, phenylhydrazine (PHZ), or sublethal irradiation were used (Lord, 1976).
The TSP induced stimulation of CFU-S proliferation within 20-24 hours after injection and the effect could be seen for at least 7 days.
The procedure used for the screening of the fractions during purification of the Inhibitor was as follows:
Mice: BDF1 or CBF1 mice strains were used throughout all testing.
Donor mice were treated with a 10 mg/100 g dose of TSP by intraperitoneal injection of 0.2 ml/mouse in order to induce 30-35% of the CFU-S into S-phase.
Twenty-four hours later the bone marrow is taken from the femurs for the cell suspension preparation. […]
Recipient spleens are harvested on day 9-12 and fixed in Tellesnitsky's solution; the colonies are scored by eye score. The percentage of cells in S-phase are calculated using the formula. […]

In the next series the test system is HPP-CFC. The experiment in a line: HPP-CFC assay after 4 hour pre-incubation. The format is cell-based, mouse. The following applies: 200 ng/ml, day 14. As for the experimental part: An in vitro assay for assessing murine reconstituting stem cells and early precursors is the high proliferative potential colony ([…]) assay; other related assays, e.g., CFU-A, CFU-GM, CFU-E, and CFU-GEMM, detect progressively restricted progenitor populations (M. Moore, Blood […]:2122-2128, 1991).
BDF1 mice were treated with 5-fluorouracil (200 mg/kg i.p.) before their bone marrow was assayed for HPP-CFC numbers. Cells were washed by centrifugation and incubated at densities of 10^6 to 5×10^6/ml in medium with either no added agent (Controls), pINPROL (25 ng/ml) or MIP-1α (200 ng/ml) for 4 hours. After incubation, cells were washed and plated in agar (0.3%) with 30% FCS and combined conditioned medium from 5637 and WEHI-3B cell lines (7.5% of each conditioned medium, as recommended by Sharp et al., 1991). Plating concentration was 5×10^4 cells/ml in 60 mm dishes.

Another series has as its system mouse bone marrow cells. Briefly: Colony formation after pre-incubation of bone marrow cells from 5FU-treated mice. Particulars: 4 hours pre-incubation. The format is cell-based. As for the experimental part: The purpose of this experiment was to compare the inhibitory effects of pre-incubation with pINPROL and MIP-1α on mouse bone marrow cells in vitro.
The following procedure was used:
in vivo: BDF1 mice, 6-15 weeks of age, are injected with 200 mg/kg 5FU i.p. 48 hours before harvesting marrow from the femurs.
in vitro: A single cell pooled suspension is counted and 5×10^6 cells are incubated in a total of 2 mls with or without pINPROL or MIP-1α, with 5% horse serum, IMDM media with added L-glutamine, at 37° C. and 5% CO2 for 4 hours. The cells are then washed twice and recounted. They are plated in methylcellulose in the following final conditions:
20 ng/ml recombinant murine IL-3
Plates were incubated for 11 days at 37° C. and 5% CO2 in 100% humidity. Colonies more than 50 cells were counted.

On to “Cys-Phe-Pro-His-Phe-Asp-Leu-Ser-His-Gly-Ser-Ala-Gln-Val-Cys (CFPHFDLSHGSAQVC; disulfide 1-15 (inferred)) [Cyclic Peptide 43-55, cyclic derivative of the 43-55 peptide]”, for which the “% Kill” value amounted to 0% in the series on CFU-MIX [1]; 14% with CFU-MIX [2]; 32% with CFU-GEMM (1 ng/ml); 0% with CFU-GEMM (10 ng); 11% with CFU-GEMM (100 ng/ml). In addition, the “fraction of bacterial lysate containing the peptide” value in series [3] is on record as “contained in the soluble fraction”.

B1: MIP-1α: cytokine macrophage inflammatory protein 1-alpha, previously characterized stem cell inhibitor (protein, UniProt P10147 24-92, looked up)
C-C motif chemokine 3: SLAADTPTACCFSYTSRQIPQNFIADYFETSSQCSKPGVIFLTKRSRQVCADPSEEWVQKYVSDLELSA
On to B1, for which, in the series on CFU-S, the “% Kill” value is 13%. In addition, in the series with HPP-CFC, the “% of Control” value amounted to 101% and the HPP-CFU was 15.8 ± 0.9. Moreover, the “Percent of Control” value in the series on mouse bone marrow cells (colonies after 11 days) is given as 114%. Moreover, in the series on mouse bone marrow cells (colonies more than 50 cells after 11 days), the “Colony Number” value came to 35.25.
